Test results reported in the nanobody polyreactivity screen of Harvey et al. (2022).

Assay: yeast display, Sf9 membrane polyspecificity reagent, FACS + sequencing; frameworks hold sequencing errors
In short: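 In a synthetic yeast display library (Saccharomyces cerevisiae BJ5465), nanobody expression was induced with galactose for 36–48 hours. FACS gates were set low and high (top ~1%) using anti-HA fluorescence for expression and streptavidin fluorescence for binding of the Sf9 membrane reagent. Each polyreactivity label is drawn from the gate of origin.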

| Sequence | polyreactivity (PSR sort gate) |
| --- | --- |
| QVQLVESGGGLVQAGGSLRLSCDASGRIYEVYAMGWYRRAPGKERELVAAISADGTITSYADSVKGRFTISRDNAKNNVYLQMNSLKPEDTAVYYCNADPRFRGDYWGQGTQVTVSS | high polyreactivity |
| QVQLVESGGGLVQAGGSLRLSCDASGRPFRRNAMGWYRQAPGKERELVAAITLSGGRTYADSLKGRFTISRDNAKNTVYLQMNSLKPEDTAVYYCAASSPGFSYWYNGYEYWGEGTQVTVSS | high polyreactivity |
| QVQLVESGGGLVQAGGSLRLSCDASGRTLDVNARGWYRQAPGKERELVAAISYSGGITYYADSVKGRFTISRDNAKNTVYLQMNRLKPEDTAVYYCAVVGGYPSYTVDYWGKGTQVTVSS | low polyreactivity |
| QVQLVESGGGLVQAGGSLRLSCDASGSIFATYAMGWYRQAPGKERELVAAIRRSTGTTYYADSVKGRFTISRDNAKNTVYLQMNSLKPEDTAVYYCAALFRPRVHRYDYWGQGTLVTVSS | low polyreactivity |
| QVQLVESGGGLVQAGGSLRLSCDASGSIFEYYAMGWYRPAPGKERELVAAISSGGPTYYADSVKGRFTISRDNAKNTVYLQMNSLKPEDTAVYYCNADLWYPDYDYWGQGTQVTVSS | low polyreactivity |
| QVQLVESGGGLVQAGGSLRLSCDASGSIFGVNAMGWYRQAPGKERELVAAINNGGSTKYADSVKGRFTISRDNAKNTVYLQMNSLKPEDTAVYYCAARSWTHYFRFDYWGQGTQVTVSS | high polyreactivity |
| QVQLVESGGGLVQAGGSLRLSCDASGSIFPYYAMGWYRQAPGKERELVAAITSSDGITYYADSVKGRFTISRDNAKNTVYLQMNSLKPEDTAVYYCAAEVYVADWLTEFYYWGQGTQVTVSS | high polyreactivity |
| QVQLVESGGGLVQAGGSLRLSCDASGSIFSHYAMGWYRQAPGKERELVATITWRGGSNTNYADSVKGRFTISRDNAKNTVYLQMNSLKPEDTAVYYCAADGDGYYYWGQGTQVTVSS | low polyreactivity |
| QVQLVESGGGLVQAGGSLRLSCDASGSIFYFNAMGWYRQAPGKERELVASITSGGSTNYADSVKGRFTISRDNAKNTVYLQMNSLKPEDTAVYYCNARKVTYPLYQDEMEYWGQGTQVTVSS | low polyreactivity |
| QVQLVESGGGLVQAGGSLRLSCDASGSILSFYVMGWYIQAPGKERELVAAINLSSGRTYYADSVKGRFTISRDNAKNTVYLQMNSLKPEDTAVYYCAKQVFGYGIVNNGDYWGQGTQVTVSS | high polyreactivity |
| QVQLVESGGGLVQAGGSLRLSCDASGSISVVNMGWYRQAPGKERELVASNTSSGSTTYADSVKGRFTISRDKAKNTVYLQMNRLKPEDTAVYYCAADVGTDYTYQHPAGAAYDYCGQGTQVTVSS | low polyreactivity |
| QVQLVESGGGLVQAGGSLRLSCDASGSSFDYYARGWYRQAPGTERELVAAITSTGRTYYADSVKGRFTISRDNAKNTVYLQMNSLKPDDTAVYYCAADQPWGPLFDYWGQGTQVTVSS | low polyreactivity |
| QVQLVESGGGLVQAGGSLRLSCDASGSTFAAYAMGWYRQAPGKERELVAAISRSGGTTYYADSVKGRFTISRDNAKNTVYLQMNSLKPEDTAVYYCAAELSLGNYWYDYWGQGTQVTVSS | high polyreactivity |
| QVQLVESGGGLVQAGGSLRLSCDASGSTFVTYAMGWYRPAPGKERELVAAINTGGRTKYADSVKGRFTISRDNATNTVYLQMNSLKPEDTAVYYCAARLSTTGVAYGYWGQGTQVTVSS | high polyreactivity |
| QVQLVESGGGLVQAGGSLRLSCDASGSTFYPNAMGWYRQAPWKERELVAAITTSGGSTYYADSVKGRFTISRDNAKNTVYLQMNSLKPEDTAVYYCAAEVRDRGLEPYGPIYDYWGQGTQVTVSS | high polyreactivity |
| QVQLVESGGGLVQAGGSLRLSCDPSGRIFNRYAMGWYRQAPGKERELVAAITSGGDTNYADSVKGRFTISRDNAKNTVYLQMNSLKQEDTAVYYCNARSRGRASGYDYWGQGTQVTVSS | high polyreactivity |

| Sequence | polyreactivity (PSR sort gate) |
| --- | --- |
| QVQLVESGGGLVQAGGSLRLSCEASGFTFGPYAMGWYRQAPGKEREWVAAIDDSGGNTYYADSVKGRFTISRDNAKNTVYLQRNSLKPEDTAVSYGNAFGPDYYHVYPAEDYWGQGTQVTVSS | low polyreactivity |
| QVQLVESGGGLVQAGGSLRLSCEASGRIFDDNDMGWYRQAPGKERELVAAISSGDSTKYADSVKGRFTITRDNAKNTVYLQMNSLKPEDTAVYYCAAERNHGLVGSESVGRNDYWGQGTQVTVSS | low polyreactivity |
| QVQLVESGGGLVQAGGSLRLSCGASGFIFEGYSMGRYRQAPAKERELVAANTRGDSTNYADSVKGRFTISRDNAKNTVYLLMNSLKTEDTAVYYCAKTNLIGTDFTSPVQYYYWGQGTQVTVSS | low polyreactivity |
| QVQLVESGGGLVQAGGSLRLSCGASGIIFLVNAMGWYRQAPGRERELVATITSGGSTYADSVKGRFTISRDNAKNTVYLQMNSLKPEDTAVYYCAAVRRRRNSYGYWGQGTQVTVSS | high polyreactivity |
| QVQLVESGGGLVQAGGSLRLSCGASGRTIDYNGMGWYRQEPGKERELVSVISSSGGSTFYADSVKGRFTISRDNAKNTVYLQMNSLEPEDTAVYYCAALHVGHNYYNSGFYYWGQGTQVTVSS | low polyreactivity |
| QVQLVESGGGLVQAGGSLRLSCGASGSIFPHYAMGWYRQAPGKEREFVSTISGSTGRTYYADSVKGRFTISRDNAKNTVYLQMNSLKPEDTAVYYCATSVGYYLPPIKYDYWGQGTQVTVSS | low polyreactivity |
| QVQLVESGGGLVQAGGSLRLSCGASGSIFYGYAMGWYRQAPGKERELVAAITLSGRRTYYADSVKGRFTISRDNAKNTVDSQMNTLKPEDTEVYYCAKHYPYPTEMNYWGQGTQVTVTS | high polyreactivity |
| QVQLVESGGGLVQAGGSLRLSCGASGSISKINAMGWYRQARGKERELVAAINTGDSTYYADSVKGRFTISRDNAKNTVYLQRNSLKPEDTAVYYCAAEGSPTGYDYWGLGTQVTVSS | low polyreactivity |
| QVQLVESGGGLVQAGGSLRLSCGASGSTSVRYAMGWYRQAPGKERELVAAISSSGGSTYYAVSVKGRFTISRDTAKNTVYLQMNSLKPEDTAVYYCNAVPYTTFDWGQGTQVTVSS | low polyreactivity |
| QVQLVESGGGLVQAGGSLRLSCGAYGRIFLFYDMGWYRQEPGKVRELVATISFRGGSTYYADSVKGRFTISRDNAKNTVYLQMNRLKPEDTAVYYCAKQNKRGYSTSAYYSWGQGTQVTVSS | low polyreactivity |
| QVQLVESGGGLVQAGGSLRLSCGAYGSIFVSHAMAWSRQAPGKASELVAAISQSGGSTYYADSVKGRFTISRDNAKNTVFLQMSSLKPEDTAVYYCATPSRSGFRIYDYWGQGTQVTVSS | low polyreactivity |
| QVQLVESGGGLVQAGGSLRLSCHASGFIFGYKAMGWYRQAPGKERELVAAISSGGSTYYADSVKGRFTISRDNAKYTVYLQMKSLKPEDTAVFYCATVFVVLPPTRFDSWGQGTQVTVSS | low polyreactivity |
| QVQLVESGGGLVQAGGSLRLSCPASGFIYPVYAMGWSRQAPGKERELVAAISRRGGSTYYADSVKGRFTISRDNAKNTVYLQMNSLKPDDTAVYYCAKDGRGDPVKDDYWGLGTQVTVSS | high polyreactivity |
| QVQLVESGGGLVQAGGSLRLSCPASGFTFVRYAMGWYRQAPGKERELVAAISSSGSSTYYADSVKGRFTISRDNAKYTVYLQMNSLKPEDSAVYYCNARAGRGEDYWGQGTQVTVSS | low polyreactivity |
| QVQLVESGGGLVQAGGSLRLSCPASGGTFYVYAMGGYRQEPGKERELVAAISTSDGITYYADSVKGRFTISRDNAKNNVYLQMNSLKPEDTAVYYCAAVYAGVGSPVKRDYWGLGTQVTVSS | high polyreactivity |
| QVQLVESGGGLVQAGGSLRLSCPASGRIYDYNGMRWYRQAPRKERELVAAITSSGSRTYYADSVKGRFTISRDNAKNTVYFQMNSLKPEDTAVYYCARGGGRRKGLVDYWGQGTQVSVSS | low polyreactivity |
